In paper PMC11764276 (Molecular Therapy, 2024):
Where a chain is given by its changes, count along the chain named.

Columns and labels:
[1] = target: T1, RBD (residues 334–527 of the SARS-CoV-2 spike glycoprotein) (SARS-CoV-2, wild type (Wuhan-Hu-1 / …, UniProt P0DTC2)); experiment: cell-based or functional assay
[2] = target: T1, RBD (residues 334–527 of the SARS-CoV-2 …); experiment: SPR; Biacore 8k; antibody captured on a Series S Protein A chip to ~200 RU or greater; 4X serially diluted RBD starting at 1,000 nM flowed at 50 uL/min, 120 s contact, 600 s dissociation; HBS-EP+ buffer; 1:1 Langmuir fitting, steady state analysis, or two-state reaction fitting; conditions: both partners purified
[3] = target: T1, RBD (residues 334–527 of the SARS-CoV-2 …); experiment: ELISA; plates coated with anti-his antibody, 10 ug/mL COV2_RBD-his captured; antibody from 8 ug/mL, 5X dilution series, in duplicate, 1 h at RT; anti-human-Fc-HRP detection; AUC divided by that of 2196 WT; conditions: both partners purified

B1: 2196 WT (recombinant mAb COV2-2196) (antibody, V domains shown)
VH: QMQLVQSGPEVKKPGTSVKVSCKASGFTFMSSAVQWVRQARGQRLEWIGWIVIGSGNTNYAQKFQERVTITRDMSTSTAYMELSSLRSEDTAVYYCAAPYCSSISCNDGFDIWGQGTMVTVSS
VL: not shown
notes: heavy chain of COV2-2196 (IGHV1-58); light chain of COV2-2196 (IGKV3-20); Whole human IgG (captured on Protein A, detected by anti-human Fc); HC vector with IgG VH leader (UniProt Q9Y298), LC vector with IGKV4-1 leader (UniProt P06312); also called WT 2196; COV-2196
Question: How did the “IC50 of neutralization of SARS-CoV-2 (USA-WA1/2020 spike) pseudovirus on HuCHOAce2 cells” value [1] turn out when B1 was run?
Answer: 0.08 ng/mL

Question: What about the Kd [2] of the same binder?
Answer: 1.8 nM

B2: 2196_CDRL3_GP (antibody, V domains shown)
VH: B1 VH
VL: not shown
notes: Whole human IgG; The designs are said to be based on positions 95 and 95A, so the proline probably stands at 95A; also called DMAb-GP
Question: Which “AUC ratio to 2196 WT” value [3] does the source give for B2 here?
Answer: > 0.975

Question: And the “fold change of IC50 against 2196 WT” value [3]?
Answer: < 2.14 fold

B3: DMAb-2196_des2_GP (antibody, V domains shown)
VH: B1 VH
VL: EIVLTQSPGTLSLSPGERATLSCRASQTISNSYVAWYQQKPGQAPRLLIYGASSRATGIPDRFSGSGSGTDFTLTISRLEPEDFAVYYCQHYGSSGPWTFGQGTKVEIK
notes: Whole human IgG; also called DMAb-Des2_GP
Question: Does B3 bind [2]?
Answer: binds

B4: DMAb-2196_AFS_(AA_NT)_var2 (antibody, V domains shown)
VH: B1 VH
VL: B3 VL with I2V, K40R, T57A, G96R, P97G
notes: Whole human IgG; also called AFS variant var2
Question: For B4, which “IC50 of neutralization of SARS-CoV-2 pseudovirus on HuCHOAce2 cells” value [1] is on record?
Answer: 0.05 ng/mL

Question: What about the Kd [2] of the same binder?
Answer: 1.6 nM

B5: 2196_CDRL3_Q (antibody, V domains shown)
VH: B1 VH
VL: not shown
notes: Whole human IgG; also called DMAb-Q
Question: How did the “AUC ratio to 2196 WT” value [3] turn out when B5 was run?
Answer: > 0.975

Question: And the “fold change of IC50 against 2196 WT” value [3]?
Answer: < 2.14 fold

B6: 2196 HC + 2072 LC (antibody, V domains shown)
VH: B1 VH
VL: not shown
notes: as the heavy chain of m2; light chain of antibody 2072 (IGKV3-20, clonally related to COV2-2196); Kabat numbering; also called DMAb-2196-HC + DMAb-2072-LC
Question: How did the Kd [2] turn out when B6 was run?
Answer: 14.3 nM

B7: 2196_CDRL1_des2 (antibody, V domains shown)
VH: B1 VH
VL: B3 VL with G96R, P97G
notes: as the heavy chain of m2; as the light chain of m2, with the CDRL1 and CDRL1-adjacent residues of alphamod1 but residues 31 and 32 kept as in 2196 WT; Kabat numbering; Whole human IgG; also called DMAb-Des2; DMAb-2196_Des2
Question: For B7, which “AUC ratio to 2196 WT” value [3] is on record?
Answer: > 0.975

Question: What about the “fold change of IC50 against 2196 WT” value [3] of the same binder?
Answer: < 2.14 fold

B8: DMAb-2196_AFS_(AA_NT)_var3 (antibody, V domains shown)
VH: B1 VH
VL: B3 VL with I2V, T28S, I29V, N31S, V34L, Y50F, S77T, F84S, G96R, P97G
notes: Whole human IgG; also called AFS variant var3
Question: What does the source list for B8?
Answer: IC50 of neutralization of SARS-CoV-2 pseudovirus on HuCHOAce2 cells [1]: 0.06 ng/mL; Kd [2]: 3.2 nM
